# Source: publication PMC7472415 (Viruses, 2020)
# T1: human importin-α3 without its importin-β binding (IBB) domain (residues 64 to 521) (human, UniProt O00629 64-521)
# T1 construct: also called ΔIBB importin-α3; Imp-α3
# T1 sequence (looked up): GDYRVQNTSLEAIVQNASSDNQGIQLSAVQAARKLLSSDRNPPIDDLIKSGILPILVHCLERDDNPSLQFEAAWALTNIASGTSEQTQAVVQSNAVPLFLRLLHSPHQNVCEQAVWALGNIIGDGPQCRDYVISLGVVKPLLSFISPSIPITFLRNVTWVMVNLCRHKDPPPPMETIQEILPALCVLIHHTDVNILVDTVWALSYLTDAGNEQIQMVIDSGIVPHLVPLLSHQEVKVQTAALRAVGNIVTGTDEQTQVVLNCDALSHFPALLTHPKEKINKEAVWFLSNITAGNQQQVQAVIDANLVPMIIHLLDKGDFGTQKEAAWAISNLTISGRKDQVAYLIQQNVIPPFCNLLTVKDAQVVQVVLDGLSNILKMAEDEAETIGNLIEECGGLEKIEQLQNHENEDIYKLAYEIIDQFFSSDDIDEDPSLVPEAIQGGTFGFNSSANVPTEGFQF
# Assays:
# [1] = target: YFP-D/NP_TAIL, yellow fluorescent protein fused to the nucleoprotein tail of D/bovine/France/2986/20 (influenza D virus D/bovine/France/2986/2012); test: SPR
# [2] = target: importin-α7 (Homo sapiens) (UniProt O60684); conditions: cited from earlier work
# [3] = target: T1, human importin-α3 without its …; test: SPR; conditions: both partners purified
# [4] = target: T2, human importin-α5 without its importin-β binding (IBB) domain (residues 66 to 538) (human, UniProt P52294 66-538); test: SPR; conditions: both partners purified
# T2 construct: also called ΔIBB importin-α5; Imp-α5
# T2 sequence (P52294 66-538): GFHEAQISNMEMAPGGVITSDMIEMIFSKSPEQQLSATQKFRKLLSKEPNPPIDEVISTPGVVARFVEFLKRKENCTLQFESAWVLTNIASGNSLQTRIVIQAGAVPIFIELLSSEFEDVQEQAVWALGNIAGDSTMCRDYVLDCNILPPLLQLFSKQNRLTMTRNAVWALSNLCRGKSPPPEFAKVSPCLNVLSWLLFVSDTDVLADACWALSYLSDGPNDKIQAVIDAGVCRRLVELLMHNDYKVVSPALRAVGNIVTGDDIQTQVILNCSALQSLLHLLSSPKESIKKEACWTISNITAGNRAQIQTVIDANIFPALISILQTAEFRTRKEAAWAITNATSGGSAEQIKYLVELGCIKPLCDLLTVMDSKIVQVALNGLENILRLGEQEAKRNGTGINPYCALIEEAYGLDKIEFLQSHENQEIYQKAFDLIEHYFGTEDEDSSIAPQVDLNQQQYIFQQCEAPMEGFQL
# [5] = target: T3, human importin-α7 without its importin-β binding (IBB) domain (residues 58 to 536) (human, UniProt O60684 58-536); test: SPR; conditions: both partners purified
# T3 construct: also called ΔIBB importin-α7; Imp-α7
# T3 sequence (O60684 58-536): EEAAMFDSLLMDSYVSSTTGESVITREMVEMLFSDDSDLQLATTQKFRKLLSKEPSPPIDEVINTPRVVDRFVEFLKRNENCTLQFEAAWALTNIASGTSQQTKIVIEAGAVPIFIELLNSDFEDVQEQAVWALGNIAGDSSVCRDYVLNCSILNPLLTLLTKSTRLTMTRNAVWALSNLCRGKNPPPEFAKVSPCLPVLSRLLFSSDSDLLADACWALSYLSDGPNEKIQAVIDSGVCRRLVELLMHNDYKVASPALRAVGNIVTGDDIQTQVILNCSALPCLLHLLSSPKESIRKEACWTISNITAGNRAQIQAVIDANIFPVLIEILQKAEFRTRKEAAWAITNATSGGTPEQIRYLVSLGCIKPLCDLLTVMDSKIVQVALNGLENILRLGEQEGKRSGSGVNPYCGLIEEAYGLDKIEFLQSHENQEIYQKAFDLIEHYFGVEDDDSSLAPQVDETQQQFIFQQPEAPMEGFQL
# [6] = target: T1, human importin-α3 without its …; test: SPR; conditions: both partners purified; remark: listed apart in the source
# [7] = target: T2, human importin-α5 without its …; test: SPR; conditions: both partners purified; remark: listed apart in the source
# [8] = target: T3, human importin-α7 without its …; test: SPR; conditions: both partners purified; remark: listed apart in the source
# Chain of human importin-α5 without its importin-β binding (IBB) domain (residues 66 to 538) (from UniProt P52294 66-538) (domain or fragment) (P52294 66-538): as the sequence (P52294 66-538) above
# Chain of human importin-α7 without its importin-β binding (IBB) domain (residues 58 to 536) (from UniProt O60684 58-536) (domain or fragment) (O60684 58-536): as the sequence (O60684 58-536) above
molecule,measurement,setting,value
human importin-α3 without its importin-β binding (IBB) domain (residues 64 to 521) (from UniProt O00629 64-521) (domain or fragment),Kd,[1],22 nM
same,koff,[1],0.007 s⁻¹
same,kon,[1],2.8e+06 M⁻¹ s⁻¹
human importin-α5 without its importin-β binding (IBB) domain (residues 66 to 538) (from UniProt P52294 66-538) (domain or fragment),Kd,[1],21 nM
same,koff,[1],0.5 s⁻¹
same,kon,[1],1.1e+06 M⁻¹ s⁻¹
influenza B nucleoprotein NPTAIL (30-71) (from UniProt P13885),Kd,[2],844 nM
human importin-α7 without its importin-β binding (IBB) domain (residues 58 to 536) (from UniProt O60684 58-536) (domain or fragment),Kd,[1],29 nM
same,koff,[1],0.104 s⁻¹
same,kon,[1],5e+06 M⁻¹ s⁻¹
"B/NP_TAIL-YFP, nucleoprotein tail of B/Memphis/13/03 (residues 1 to 71) fused to yellow fluorescent (domain or fragment) MSNMDIDGINTGTIDKTPEEITSGTSGTTRPIIRPATLAPPSNKRTRNPSPERATTSSEADVGRKTQKKQT",Kd,[3],308 ± 106 nM
same,Kd,[4],770 ± 24 nM
same,Kd,[5],405 ± 5 nM
same,koff,[6],> 1 s⁻¹
same,kon,[6],> 1e+07 M⁻¹ s⁻¹
same,koff,[7],> 1 s⁻¹
same,kon,[7],> 1e+07 M⁻¹ s⁻¹
same,koff,[8],> 1 s⁻¹
same,kon,[8],> 1e+07 M⁻¹ s⁻¹
